The source of these data is article PMC9387928.

In the data set the target is T1, ZccR (MerR-type regulator) (Streptococcus mutans UA159) (UniProt Q8DRZ5).
T1 sequence: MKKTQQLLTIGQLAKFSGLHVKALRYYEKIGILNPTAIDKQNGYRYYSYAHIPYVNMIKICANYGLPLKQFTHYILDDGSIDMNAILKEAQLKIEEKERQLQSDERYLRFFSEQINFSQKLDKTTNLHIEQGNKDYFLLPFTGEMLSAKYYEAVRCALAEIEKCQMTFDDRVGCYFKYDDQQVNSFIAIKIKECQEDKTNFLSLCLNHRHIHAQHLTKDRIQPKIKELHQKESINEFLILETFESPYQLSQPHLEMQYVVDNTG
The data set is described as follows: EMSA. Particulars: 10 mM Tris, 50 mM KCl, 1 ug poly dI-dC, 1 mM DTT, 5% glycerol, pH 7.5; 20 fmol probe in 20 ul; 6% native PAGE at 4 C; binding temperature not stated.

Turning to “CACAAATAGCTTGACCTTCCCTTTAAGGTATAGTTTATAGTTAAACTATAACAAGGTTTGCTAAAAAATGCAATGATTTCTGTATTGGAAAGGAGCCAATCATGTCTAAAGGTGATAAACAAAAGAAAAGGCTTCAAAAAATGACTTGGCTTTCAATATG (double strand) [zccE-zccR intergenic region (IGR), 160 bp]”, the binding result is “binds”.
